Literature values as cited in PMC4289615.

Molecular target: IL-2Rβγ (intermediate-affinity IL-2 receptor) (Homo sapiens) (UniProt P14784)
UniProt P14784, sequence (P14784 27-240, chain 1 of 2): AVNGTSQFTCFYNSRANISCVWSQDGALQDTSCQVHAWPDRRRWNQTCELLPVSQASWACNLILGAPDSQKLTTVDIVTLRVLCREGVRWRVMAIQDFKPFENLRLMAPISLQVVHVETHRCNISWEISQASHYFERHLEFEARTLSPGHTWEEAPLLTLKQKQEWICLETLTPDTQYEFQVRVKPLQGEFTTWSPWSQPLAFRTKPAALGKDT
UniProt P14784, sequence (P31785 23-262, chain 2 of 2, further chain): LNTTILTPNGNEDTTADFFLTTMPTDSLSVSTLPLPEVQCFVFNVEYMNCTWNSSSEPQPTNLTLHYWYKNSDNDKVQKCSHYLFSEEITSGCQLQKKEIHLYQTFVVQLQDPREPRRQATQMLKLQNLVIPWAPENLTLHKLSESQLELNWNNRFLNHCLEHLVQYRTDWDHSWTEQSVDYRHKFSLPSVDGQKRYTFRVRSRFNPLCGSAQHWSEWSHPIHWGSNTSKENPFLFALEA

IL-2, sequence (P60568 21-153): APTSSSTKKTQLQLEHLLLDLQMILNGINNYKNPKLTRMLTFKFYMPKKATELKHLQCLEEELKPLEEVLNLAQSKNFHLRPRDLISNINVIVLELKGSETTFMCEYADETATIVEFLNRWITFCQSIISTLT

In the case of IL-2 (from UniProt P60568), the Kd is listed as 1 nM.
